One series can be described thus: CNS penetration. The settings on record: in vivo.
A further series concerns the target T1, calcitonin (Homo sapiens, UniProt P01258).
T1 sequence (P01258 85-116 limits assumed): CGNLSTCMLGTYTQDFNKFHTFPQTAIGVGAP
The series is described as follows: Solution competition by Biacore: calcitonin. The settings on record: pre-incubation with an excess of peptide. It is filed as binding. The source says:
(§1) FIG. 5: Solution competition by Biacore: CGRP, CGRP fragments or peptides related in sequence to CGRP were used to determine the specificity of G1.
(§2) We determined the specificity of antibody G1 to human or rat CGRP by using the Biacore chip to “probe” the free concentration of a premixed complex of mAb+peptide.

In the next series the test system is human or rat CGRP. The series is described as follows: Solution competition by Biacore: human or rat CGRP. It is filed as binding. The settings on record: premixed mAb+peptide.
Text: as §1, §2
(In general: SPR reads the build-up and loss of mass on a sensor chip optically.)

Series [1] addresses T2, human α-CGRP (Homo sapiens, UniProt P06881).
T2 sequence (P06881 83-119 limits assumed): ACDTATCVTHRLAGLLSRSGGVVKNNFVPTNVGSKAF
The series is described as follows: Binding assay: blocking human α-CGRP from binding to the CGRP1-receptor in SK-N-MC cells. On the set-up: CGRP (calcitonin gene-related peptide) is a 37 amino acid neuropeptide; host or cells: SK-N-MC cells (endogenous receptor). The settings on record: FIG. 2.

A further series deals with T3, rat α-CGRP (Rattus norvegicus, UniProt P01256).
T3 construct: CGRP (calcitonin gene-related peptide) is a 37 amino acid neuropeptide
T3 sequence (P01256 83-119 limits assumed): T2 sequence (P06881 83-119 limits assumed) with A1S, D3N, N25D, K35E
The series is described as follows: Biacore binding affinity, N-biotinylated rat α-CGRP on chip. The source says:
(§3) G1 was titrated over the chip surface Binding affinities were deduced from the quotient of the kinetic rate constants (KD=koff/kon) see Table 1.

Series [2] addresses T2, human α-CGRP. The series is described as follows: Biacore binding affinity, N-biotinylated human α-CGRP on chip. Also on record: as full-length N-biotinylated human α-CGRP.
Text: as §3

In a further series the test system is rat. The series is described as follows: Gastro-intestinal adverse effects in-vivo study.
Another series has as its target T4, adrenomedullin (Homo sapiens, UniProt P35318).
T4 sequence (P35318 95-146 limits assumed): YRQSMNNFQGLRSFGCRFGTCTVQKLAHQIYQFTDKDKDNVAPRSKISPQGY
The series is described as follows: Solution competition by Biacore: adrenomedullin. It is filed as binding. The settings on record: pre-incubation with an excess of peptide.
Text: as §1, §2

In series [3] the test system is 25-37 human α-CGRP fragment. The series is described as follows: Epitope identification, alanine scan of C-terminal CGRP fragment (Biacore 3000). The settings on record: Fab fragments, positions 27-37 mutated to alanine, 25° C. It is filed as binding. As for the experimental part: (§4) FIG. 4: Alanine scan using a C-terminal CGRP fragment (CGRP 25-37).
(§5) Interaction analysis was conducted at 25° C. on a Biacore 3000™ system equipped with streptavidin-coated (SA) sensor chips (Biacore AB, Uppsala, Sweden) using a standard Biacore running buffer (HBS-P). […] Each amino acid between position 27-37 was then mutated individually to alanine and expressed the fold loss in affinity compared to the wild-type fragment. […] Purified Fab fragments of antibody G1 were generated. Fab fragments were titrated over the chip using 1 μM as the top concentration of a two-fold dilution series. Association and dissociation phases were monitored at 100 μl/min for 1 minute and 5 minutes respectively. Surfaces were regenerated with a mixture of 35% ethanol+25 mM NaOH+0.5M NaCl.

The target of series [4] is 25-37 human α-CGRP fragment (Homo sapiens, UniProt P06881). Described as above. Type of series: binding. The settings on record: 25° C. The procedure: as §4, §5
In a further series the test system is rats. The series is described as follows: Long term observation for adverse CNS events (dependence indicators). Type of series: in vivo, rat. The settings on record: in comparison to control animals.
A further series deals with T5, human β-CGRP (Homo sapiens, UniProt P10092).
T5 construct: CGRP (calcitonin gene-related peptide) is a 37 amino acid neuropeptide
T5 sequence (P10092 82-118 limits assumed): T2 sequence (P06881 83-119 limits assumed) with D3N, V22M, N25S
The series is described as follows: Biacore binding affinity, N-biotin β-human CGRP on chip. The settings on record: 37 ° C.
Text: as §3

The subject of series [5] is OA hind limb of the rat (MMT). The series is described as follows: Osteoarthritis pain model (transection of the medial meniscus, MMT), weight bearing. It is filed as in vivo. As for the experimental part: FIG. 1: Osteoarthritis pain model. […] Both antibodies were dissolved in a vehicle solution containing PBS+0.01% Tween 20. Celecoxib was used as positive control in the study. It was suspended in 0.5% methylcellulose and 0.025% Tween-20 and was administered by oral gavage (1 ml/kg) at 30 mg/kg, twice a day throughout the study period. Pain responses were assessed on day 2, 3, 7 and 10 following initiation of the pharmacology study (day 0) and were assessed in a fully blinded fashion. Data re the mean±SEM of 6 rats per group. *p<0.05 and p<0.01 vs baseline value (Dunnett's test in GraphPad Prism). In the figure, from left to right, bar 1=baseline, bars 2-5=null antibody, bars 6-9=1 mg/ml G2, bars 10-13=10 mg/ml G2, bars 14-17=Celecoxib 30 mg/ml.
Transection of the medial meniscus (MMT) in one hind knee of the rat results in the development of cartilage lesions and other changes in the joint similar to those that occur in OA. The resulting joint pain leads to the development of sustained changes in weight bearing (assessed using an incapacitance meter) in the rat hind limbs and mechanical (tactile) allodynia (assessed using von Frey filaments), in the hind paw, lasting several weeks. Studies were carried out accordingly to a blind protocol, where the investigator was not aware of the identity of the compound/control or the treatment of the animal.

A further series addresses T6, rat β-CGRP (Rattus norvegicus, UniProt P10093, R105S).
T6 construct: CGRP (calcitonin gene-related peptide) is a 37 amino acid neuropeptide
T6 sequence (P10093 89-125 R105S limits assumed): T2 sequence (P06881 83-119 limits assumed) with A1S, D3N, N25D
The series is described as follows: Biacore binding affinity, N-biotin β-rat CGRP on chip. The settings on record: 37 ° C.
Text: as §3

The test system of series [6] is neurogenic skin flare rat model. The series is described as follows: Neurogenic skin flare model (saphenous nerve stimulation, laser Doppler blood flow). It is filed as in vivo. The settings on record: for start of significant decrease in blood flow response / development of neurogenic flare in vivo: rat. The procedure: FIG. 7: Data showing G1 inhibits neurogenic flare in the skin starting from 90 min post-treatment. G1 was administered by intravenous administration (1 ml/kg). Data are from 6-8 or 13 rats per group. *p=0.05, **p=0.01 vs vehicle (phosphate buffered saline) treated group at each time point (AVOVA).
Using a neurogenic skin flare rat model the efficacy of G1 was tested for its ability to block CGRP effect in vivo. The saphenous nerve in the rat is electrically stimulated causing CGRP release from nerve endings and leading to vasodilation, the resulting changes in blood flow can be measured using laser Dopler methods.
Changes in blood flow parameters were expressed as the area under the curve (AUC, change in arbitrary Doppler flux units multiplied by time). CGRP receptor antagonist CGRP8-37 (400 nmol/kg, i.v.) was used as a positive control to validate the specificity of the model (data not shown). To determine the effect of G1 prior to dosing for each animal, the baseline blood flow response to stimulation was established with two saphenous nerve stimulations each 30 minutes apart. Rats were treated with G1 after the blood flow response of the second stimulation had returned to baseline levels (approximately 10 minutes post stimulation) and an additional four stimulations at 30 minute intervals were performed.

A further series has as its target T7, amylin (Homo sapiens, UniProt P10997).
T7 sequence (P10997 34-70 limits assumed): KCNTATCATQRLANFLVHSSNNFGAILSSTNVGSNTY
The series is described as follows: Solution competition by Biacore: amylin. It is filed as binding. The settings on record: pre-incubation with an excess of peptide.
Text: as §1, §2

A short description of series [7]: Plasma exposure of antibody in the OA pain study. The settings on record: rat. Type of series: in vivo. The procedure:
This effect lasted 10 days post administration when the plasma exposure of antibody G2 achieved an average value of 65.1±3 ug/ml (6.3±0.3 ug/ml, for the lower dose at 10 days post IV).

Residue numbers refer to the chain shown, from its start.

One may read the koff as the first-order rate constant of dissociation. Lower therefore signals slow dissociation. A word on the kon: it is a measure of how fast the partners come together. High values mean fast association, low ones slow association. As for “G1: humanized IgG2Δa monoclonal anti-CGRP antagonist antibody, vectors ATCC PTA-6867 and PTA-6866; variable regions SEQ ID Nos. 1 and 2 [Antibody G1]”, the “CNS penetration / crossing of blood brain barrier” value in the series “CNS penetration” is reported as “Neither antibody G1 nor antibody G2 demonstrate CNS penetration”. Also, in the series with calcitonin, the “complex formation with calcitonin” value is on record as “did not form a complex”. Further, in the series on human or rat CGRP, the “Biacore response after pre-incubation with human or rat CGRP” value is on record as “fully blocked”. Moreover, the “inhibition of binding of α-CGRP to the CGRP1 receptor” value with human α-CGRP [1] is on record as “inhibits the binding of α-CGRP to the CGRP1 receptor”. The “koff” value with rat α-CGRP (25 ° C.) was determined as 6.18e-05 s⁻¹; with rat α-CGRP (37 ° C.), 0.000399 s⁻¹; with human α-CGRP [2] (25 ° C.), 7.8e-06 s⁻¹; with human α-CGRP [2] (37 ° C.), 3.63e-05 s⁻¹; with human β-CGRP it was 6.98e-05 s⁻¹; in the series with rat β-CGRP, 7.85e-05 s⁻¹. For the same molecule, the “kon” value in the series with rat α-CGRP (25 ° C.) came to 50800 M⁻¹ s⁻¹; with rat α-CGRP (37 ° C.), 155000 M⁻¹ s⁻¹; with human α-CGRP [2] (25 ° C.), 186000 M⁻¹ s⁻¹; with human α-CGRP [2] (37 ° C.), 587000 M⁻¹ s⁻¹; with human β-CGRP, 451000 M⁻¹ s⁻¹; in the series with rat β-CGRP, 516000 M⁻¹ s⁻¹. For the same molecule, the “adverse gastro intestinal effects on behaviour, food intake, stool production or histopathology” value in the series with rat (1 week comparative study) is on record as “no adverse gastro intestinal effects were observed”. In the series with adrenomedullin, the “complex formation with adrenomedullin” value is given as “did not form a complex”. In series [3], the “alanine scan result, binding region (epitope)” value is “binds to the C-terminal region of human α-CGRP, particularly residues 25 to 37”. For the same molecule, in [4], the “affinity of N-biotinylated 25-37 human α-CGRP fragment vs full-length N-biotinylated human α-CGRP” value is reported as “bound with the same affinity”. Moreover, the “adverse CNS events such as sedation or stimulation/euphoric behaviour” value in the series on rats is reported as “did not reveal adverse CNS events”. Also, in [5] (repeat experiments, buffer as negative control), the “shift in weight bearing on the OA limb” value was “reversed the shift in weight bearing on the OA limb to normal value”. The “effect in further neurogenic flare and vasodilatation model tests” value in [6] (7 days post IV dosing) is “marked effect”. For the same molecule, in series [6] (FIG. 7, intravenous administration), the “start of inhibition of neurogenic flare in the skin” value is on record as 90 min post-treatment. Further, the “start of significant decrease in blood flow response” value in series [6] (1 mg/kg IV) is 120 minutes post dose; in series [6] (10 mg/kg IV), 90 minutes post dose. In addition, the “development of neurogenic flare in vivo” value in [6] is recorded as “prevent the development of neurogenic flare in vivo”. The “predicted ED50” value in series [6] (saphenous nerve stimulation model) was 6 µg/mL. Besides, in the series with amylin, the “complex formation with amylin” value was “did not form a complex”.

B1: G2: anti-rat CGRP mouse monoclonal antibody (Wong H C et al. 1993); variable regions SEQ ID Nos. 19 and 20; RN4901 = murine tool in Table 1 legend (antibody, V domains shown)
VH: EVQLQQSGPELVKPGASVKMSCKASGYTFTSSVMHWVKQKPGQGLEWIGYINPYNDGTKYNEKFKGKATLTSDKSSSTAYMELSSLTSEDSAVYYCAKGGNDGYWGQGTTLTVSS
VL: EIVLTQSPTTMAASPGEKITITCSASSSISSIYLHWYQQKPGFSPKVLIYRASNLASGVPARFSGSGSGTSYSLTIGTMEAEDVATYYCQQGSTIPFTFGSGTKLEIK
modifications: Synthetic polypeptide, Antibody G2 heavy chain variable region; Synthetic polypeptide, Antibody G2 light chain variable region
Take B1: in “CNS penetration”, the “CNS penetration / crossing of blood brain barrier” value is reported as “Neither antibody G1 nor antibody G2 demonstrate CNS penetration”. Also, in the series on rat (1 month study), the “adverse gastro intestinal effects on behaviour, food intake, stool production or histopathology” value was “no adverse gastro intestinal effects were observed”. Besides, the “adverse CNS events such as sedation or stimulation/euphoric behaviour” value in the series with rats is on record as “did not reveal adverse CNS events”. Also, the “plasma exposure, average value” in [7] (10 mg/kg IV, 10 days post administration) was 65.1 ± 3 µg/mL; in series [7] (lower dose, 10 days post IV), 6.3 ± 0.3 µg/mL. Also, in series [5] (10 mg/kg, IV), the “duration of effect on weight bearing” value came to 10 days post administration. Moreover, the “weight bearing deficit of the OA hind limb” value in series [5] (10 mg/kg, IV) is given as “reversed weight bearing deficit of the OA hind limb”; in series [5] (lower dose (1 mg/kg, IV)) it was “No effect”. For the same molecule, in series [6], the “development of neurogenic flare in vivo” value is reported as “prevent the development of neurogenic flare in vivo”.
